# Test results taken from the supplement of paper PMC6757056.
# ± gives the standard deviation of the averaged measurements.
# B1: library; a variant is named by its letters at N, in order (parent)
# chain: GCUGUCACCGGUGCUUGGUACGUUAUAUUCAGCCGGUCUGAUGAGUCUNNNNNNAGACGAAACAGC
# Experiments:
# (6R,S)-folinic acid [1] = variants of: B1; assay: normalized RNA/DNA level without ligand (relative to sTRSVctl = 100) (log10 (% of sTRSVctl)); HEK293T overexpressing SLC46A1; higher = less ribozyme self-cleavage, higher mRNA level; details: without (6R,S)-folinic acid; ligand present: no
# Procedure, shortened: (§1)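 Total RNA, extracted with EDTA 72 h after HEK293T cells were transfected with 4 µg per 6-well well of reporter-linked ribozyme switch library plasmids, was reverse-transcribed, amplified, barcoded and sequenced. Ligand, if used, was added 1 h before transfection. RNA level was derived from RNA reads divided by DNA reads and normalized to a spiked-in non-cleaving sequence or to the top sequences. This was multiplied by 100 and log10-transformed, with the top set of 25 sequences and a ≥100 DNA read minimum.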
# (6R,S)-folinic acid [2] = variants of: B1; assay: normalized RNA/DNA level with ligand (relative to sTRSVctl = 100) (log10 (% of sTRSVctl)); HEK293T overexpressing SLC46A1; ligand concentration (+) RNA-Seq: 6 mM; higher = less ribozyme self-cleavage, higher mRNA level; details: with (6R,S)-folinic acid; ligand present: yes
# Procedure, shortened: as §1
Variant,"normalized RNA/DNA level without ligand (log10) ((6R,S)-folinic acid [1])","normalized RNA/DNA level with ligand (log10) ((6R,S)-folinic acid [2])"
GCUGUCACCGGUGCUUGGUACGUUAUAUUCAGCCGGUCUGAUGAGUCUCGUUGAAGACGAAACAGC [CGUUGA],2.013 ± 0.013,2.016 ± 0.0024
GCUGUCACCGGUGCUUGGUACGUUAUAUUCAGCCGGUCUGAUGAGUCUAGUUGGAGACGAAACAGC [AGUUGG],1.87 ± 0.022,1.994 ± 0.015
GCUGUCACCGGUGCUUGGUACGUUAUAUUCAGCCGGUCUGAUGAGUCUCGUUAGAGACGAAACAGC [CGUUAG],2.009 ± 0.0098,2.031 ± 0.006
GCUGUCACCGGUGCUUGGUACGUUAUAUUCAGCCGGUCUGAUGAGUCUCGUUAUAGACGAAACAGC [CGUUAU],1.977 ± 0.0039,2.005 ± 0.016
GCUGUCACCGGUGCUUGGUACGUUAUAUUCAGCCGGUCUGAUGAGUCUCGUUUUAGACGAAACAGC [CGUUUU],2.032 ± 0.0078,2.037 ± 0.0095
GCUGUCACCGGUGCUUGGUACGUUAUAUUCAGCCGGUCUGAUGAGUCUCGUUUGAGACGAAACAGC [CGUUUG],2 ± 0.029,1.986 ± 0.0034
GCUGUCACCGGUGCUUGGUACGUUAUAUUCAGCCGGUCUGAUGAGUCUCGUUUAAGACGAAACAGC [CGUUUA],1.99 ± 0.03,2.01 ± 0.034
GCUGUCACCGGUGCUUGGUACGUUAUAUUCAGCCGGUCUGAUGAGUCUCGUUUCAGACGAAACAGC [CGUUUC],2.06 ± 0.047,2.06 ± 0.06
GCUGUCACCGGUGCUUGGUACGUUAUAUUCAGCCGGUCUGAUGAGUCUGGUUUAAGACGAAACAGC [GGUUUA],2.009 ± 0.018,1.98 ± 0.03
GCUGUCACCGGUGCUUGGUACGUUAUAUUCAGCCGGUCUGAUGAGUCUGGUUUCAGACGAAACAGC [GGUUUC],2.021 ± 0.011,1.9966 ± 0.0012
GCUGUCACCGGUGCUUGGUACGUUAUAUUCAGCCGGUCUGAUGAGUCUGGUUUUAGACGAAACAGC [GGUUUU],2 ± 0.021,1.99 ± 0.033
GCUGUCACCGGUGCUUGGUACGUUAUAUUCAGCCGGUCUGAUGAGUCUUGUUCAAGACGAAACAGC [UGUUCA],1.991 ± 0.012,2.0188 ± 0.0011
GCUGUCACCGGUGCUUGGUACGUUAUAUUCAGCCGGUCUGAUGAGUCUUGUUCGAGACGAAACAGC [UGUUCG],1.761 ± 0.017,1.96 ± 0.031
GCUGUCACCGGUGCUUGGUACGUUAUAUUCAGCCGGUCUGAUGAGUCUUGUUCUAGACGAAACAGC [UGUUCU],2.031 ± 0.0043,2.08 ± 0.035
GCUGUCACCGGUGCUUGGUACGUUAUAUUCAGCCGGUCUGAUGAGUCUGGUUGUAGACGAAACAGC [GGUUGU],2.023 ± 0.0028,2.04 ± 0.051
GCUGUCACCGGUGCUUGGUACGUUAUAUUCAGCCGGUCUGAUGAGUCUGGUUGGAGACGAAACAGC [GGUUGG],2.042 ± 0.016,2.03 ± 0.031
GCUGUCACCGGUGCUUGGUACGUUAUAUUCAGCCGGUCUGAUGAGUCUGGUUCGAGACGAAACAGC [GGUUCG],2.0485 ± 5.4e-05,2.06 ± 0.048
GCUGUCACCGGUGCUUGGUACGUUAUAUUCAGCCGGUCUGAUGAGUCUGGUUCUAGACGAAACAGC [GGUUCU],2.0626 ± 0.0019,2.05 ± 0.049
GCUGUCACCGGUGCUUGGUACGUUAUAUUCAGCCGGUCUGAUGAGUCUGGUUCAAGACGAAACAGC [GGUUCA],1.99 ± 0.02,2 ± 0.036
GCUGUCACCGGUGCUUGGUACGUUAUAUUCAGCCGGUCUGAUGAGUCUGGUUCCAGACGAAACAGC [GGUUCC],2.028 ± 0.018,2.03 ± 0.037
GCUGUCACCGGUGCUUGGUACGUUAUAUUCAGCCGGUCUGAUGAGUCUUGUUAUAGACGAAACAGC [UGUUAU],1.95 ± 0.028,1.975 ± 0.0073
